Results: US11124574B2, “Specific photoimmuno-theranostics for detection and elimination of skin cancer cells” (University of Cape Town, priority 2015, dated 2021)

Assays:
[1] = system: A431, IGR-1, IGR-39 and A2058; experiment: Apo-ONE Caspase-3/7 apoptosis assay, controls; type: cell-based, human; details: photosensitizer or fusion protein alone
Protocol: (§1) In addition to the in vitro imaging specificity, the phototoxic activity of scFv-SNAP-IR700 and free IR700 were also investigated using cell proliferation and cell apoptosis assays as described previously (9). Briefly, 2×10^4 cells were seeded in 96-well plates and incubated overnight at 37° C. The cells were treated with different concentrations (0, 12.5, 25, 50, 100, 200 and 400) nM of scFv-425-SNAP, IR700 or equivalent concentration of scFv-SNAP-425-IR700 for 3 h at 37° C. in the dark. Toxic control cultures were incubated with 500 μg/mL zeocin instead of the photosensitizer.
(§2) Before light irradiation, cells were washed three times with PBS and fresh phenol red free culture media were added to the cells. […]
(§3) Next it was determined whether scFv-SNAP-IR700 has the ability to induce apoptosis using the Apo-ONE® Homogeneous Caspase-3/7 assay (Promega, Mannheim, Germany). […] The activities of caspase-3 and -7 enzymes were analyzed in cell lysates by measuring the fluorescence signal at 485 nm excitation wavelength and 535 nm emission wavelength using the ELISA plate reader ELx808 (Bio-TEK, Bad Friedrichschall, Germany).

[2] = system: A431, IGR-1, IGR-39 and A2058; experiment: XTT cell viability assay, controls on all cell lines; type: cell-based, human; details: for cell viability (XTT), controls: all cell lines, treated with NIR-light
Protocol: (§4) The human skin epidermoid carcinoma cell line A431 (ATCC: CRL-259), human embryonic kidney (HEK-293T) cell line (ATCC: CRL-11268) and the human melanoma cell line A2058 (ATCC: CRL-11147) were cultured in RPMI-1640 medium. The human melanoma cell line IGR-39 (DSMZ: ACC 239) and IGR-1 (DSMZ: ACC-236) were cultured in DEME medium. All media were supplemented with 2 mM L-glutamine, 10% (v/v) fetal bovine serum (FBS) and 100 U/mL penicillin-streptomycin; the cells were incubated at 37° C. in a 5% CO2 atm. All media and additives were purchased from Life Technologies, Darmstadt, Germany.
as §1
Before light irradiation, cells were washed three times with PBS and fresh phenol red free culture media were added to the cells. Light treatment was performed with a Hydrosun® Typ 750 radiator with a water-containing cuvette and an orange filter OG590, with 140 mW/cm^2, dose: 25 J/cm^2a VIS, 76 J/cm^2 wIRA, exposure time: 15 min, and a spectrum in the range of 580-1400 nm (Hydrosun Medizintechnik GmbH, Mülhelm, Germany). […]
(§5) Cell viability was measured using the cell proliferation kit II (XTT®) (Roche, Mannheim Germany) according to the manufacturer's instructions. […] Cell viability was determined colorimetrically by monitoring the reduction of XTT® to formazan at 450 nm absorbance wavelength and 630 nm reference wavelength using the ELx808 absorbance micro-plate reader (BioTek Instruments GmbH, Bad Friedrichshall, Germany).

[3] = system: EGFR^+ skin carcinoma cell lines (A431, IGR1 and IGR-39); experiment: Flow cytometry binding analysis; design: species or system human; details: EGFR+ skin cancer cells; 30 min on ice
Protocol: Flow cytometry analysis was performed to determine the binding properties of labeled scFv-SNAP-tag fusion protein against skin cancer cell lines. Approximately 4×10^5 cells each of the EGFR-positive skin cancer cell lines IGR-39, IGR-1 and A431 as well as of the EGFR low expressing cell line A2058 were incubated with 0.5 μg of labeled proteins for 30 min on ice. After washing the cells twice with 1.8 mL of PBS in a conventional cell washer, fluorescence signals were detected using a FACSCalibur® device and CellQuest® software (Becton & Dickinson, Heidelberg, Germany) using a 633 nm laser source.

[4] = system: EGFR-expressing cell lines (A431, IGR1 and IGR-39); experiment: Confocal microscopy binding and internalization; type: cell-based, human
Protocol: (§6) To further monitor the targeted activity of fusion protein, Opera® High Content Screening System (PerkinElmer, Rodgau, Germany) was used to determine the binding and internalization properties of labeled fusion proteins on skin cancer cells. Cells were prepared as described for flow cytometry analysis. Binding activity was analyzed by incubating the cells with labeled fusion proteins for 30 min on ice, while receptor mediate internalization activities was monitored by incubating the cells with the labeled fusion proteins for 2 h at 37° C.

[5] = system: EGFR low expressing cell line (A2058); experiment: Confocal microscopy binding and internalization; type: cell-based, human; details: same conditions
Protocol: as §6

[6] = system: EGFR low expressing cells (A2058); experiment: Apo-ONE Caspase-3/7 apoptosis assay; type: cell-based, human; details: same conditions
Protocol: as §1, §2, §3

[7] = system: cells expressing EGFR (A431, IGR-1, IGR-39); experiment: Apo-ONE Caspase-3/7 apoptosis assay; type: cell-based, human; details: all cells expressing EGFR; with light
Protocol: as §1, §2, §3

[8] = system: A2058 cells (EGFR low expressing); experiment: XTT cell viability assay after light treatment; type: cell-based, human; details: same protocol with light, up to 400 nM
Protocol: as §4
(§7) In addition to the in vitro imaging specificity, the phototoxic activity of scFv-SNAP-IR700 and free IR700 were also investigated using cell proliferation and cell apoptosis assays as described previously (9). Briefly, 2×10^4 cells were seeded in 96-well plates and incubated overnight at 37° C. […]
as §5

[9] = system: EGFR-expressing skin cancer cell lines (A431, IGR-1, IGR-39); experiment: XTT cell viability assay, EGFR-expressing lines together; type: cell-based, human; details: with light 580-1400 nm; 0-400 nM
Protocol: as §4, §7, §5

## scFv-425-SNAP-tag: unlabeled fusion protein of anti-EGFR scFv-425 (SEQ ID No. 1) and SNAP-tag (SEQ ID No. 2)
[1]
  caspase activities, controls: no significant elevation of caspase activities
[2]
  cell viability (XTT), controls: unaffected

## C[Si](C)(CCC[N+](CCCS(=O)(=O)[O-])(CCCS(=O)(=O)[O-])CCCS(=O)(=O)[O-])O[Si]1(O[Si](C)(C)CCC[N+](CCCS(=O)(=O)[O-])(CCCS(=O)(=O)[O-])CCCS(=O)(=O)[O-])n2c3c4ccccc4c2N=C2N=C(N=c4c5ccccc5c(n41)=NC1=NC(=N3)c3ccccc31)c1cccc(OCCCOC(=O)NCCCCCC(=O)ON3C(=O)CCC3=O)c12.[Na+].[Na+].[Na+].[Na+] (stereo not shown) [IR700, IRDye®700DX N-hydroxysuccinimide ester, reference compound]
[1]
  caspase activities, controls: no significant elevation of caspase activities
[2]
  cell viability (XTT), controls: unaffected

B1: scFv-425-SNAP-647: scFv-425-SNAP-tag fusion protein conjugated with BG-Alexa-647 dye, used for flow cytometry and confocal microscopy (conjugate)
scFv: MAQVQLQQSGAELVKPGASVKLSCKASGYTFTSHWMHWVKQRAGQGLEWIGEFNPSNGRTNYNEKFKSKATLTVDKSSSTAYMQLSSLTSEDSAVYYCASRDYDYDGRYFDYWGQGTTVTVSSGGGGSGGGGSGGGGSDIELTQSPAIMSASPGEKVTMTCSASSSVTYMYWYQQKPGSSPRLLIYDTSNLASGVPVRFSGSGSGTSYSLTISRMEAEDAATYYCQQWSSHIFTFGSGTELEIKRMDKDCEMKRTTLDSPLGKLELSGCEQGLHEIKLLGKGTSAADAVEVPAPAAVLGGPEPLMQATAWLNAYFHQPEAIEEFPVPALHHPVFQQESFTRQVLWKLLKVVKFGEVISYQQLAALAGNPAATAAVKTALSGNPVPILIPCHRVVSSSGAVGGYEGGLAVKEWLLAHEGHRLGKP
modifications: left off: small tags and cut ends
[3]
  labeling of cells (flow cytometry): rapid and efficient labeling
[4]; 30 min incubation at 4° C.
  binding, cell membrane staining (confocal): homogeneous cell membrane staining
[4]; max. 2 h of incubation at 37° C.
  internalization (confocal): exclusively taken up
[5]
  binding/internalization signal (confocal): no signal was detected

B2: scFv-425-SNAP-IR700: IR700 photosensitizer (via BG-PEG24 linker) conjugated to anti-EGFR single-chain variable fragment scFv-425 fused to SNAP-tag (conjugate)
scFv: B1 scFv
modifications: left off: small tags and cut ends
notes: IR700 photosensitizer (via BG-PEG24 linker) conjugated to anti-EGFR single-chain variable fragment scFv-425 fused to SNAP-tag
[6]
  caspase-3 and caspase-7 activities (apoptosis): did not have a negative impact
[7]
  caspase-3 and caspase-7 activities (apoptosis): triggers apoptosis
[8]
  cell viability (XTT): no significant reduction in cell viability
[9]
  viability of EGFR+ cells (XTT): reduced significantly in a concentration-dependent manner
[2]; without any light treatment
  cell viability (XTT) without light: no toxic effects
